Measurements reported in the DeepSol protein solubility set.

Experiment: soluble on expression in E. coli; label from the status in PepcDB or PDB records
With “MSLHSYDYDAIVIGSGPGGEGAAMGLVKQGARVAVIERYQNVGGGCTHWGTIPSKALRHAVSRIIEFNQNPLYSDHSRLLRSSFADILNHADNVINQQTRMRQGFYERNHCEILQGNARFVDEHTLALDCPDGSVETLTAEKFVIACGSRPYHPTDVDFTHPRIYDSDSILSMHHEPRHVLIYGAGVIGCEYASIFRGMDVKVDLINTRDRLLAFLDQEMSDSLSYHFWNSGVVIRHNEEYEKIEGCDDGVIMHLKSGKKLKADCLLYANGRTGNTDSLALQNIGLETDSRGQLKVNSMYQTAQPHVYAVGDVIGYPSLASAAYDQGRIAAQALVKGEANAHLIEDIPTGIYTIPEISSVGKTEQQLTAMKVPYEVGRAQFKHLARAQIVGMNVGTLKILFHRETKEILGIHCFGERAAEIIHIGQAIMEQKGGGNTIEYFVNTTFNYPTMAEAYRVAALNGLNRLFEGHHHHHH” the “soluble on expression in E. coli” value was “soluble”. For “MEGGKLQSTFVFEEIGRRLKDIGPEVVKKVNAVFEWHITKGGNIGAKWTIDLKSGSGKVYQGPAKGAADTTIILSDEDFMEVVLGKLDPQKAFFSGRLKARGNIMLSQKLQMILKDYAKL”, the “soluble on expression in E. coli” value was “soluble”. In the case of “SLDAAVGDVIVTLGADLSESDKQKVLDEMNVPDNATTVTVTNKEEHEYLGKYISNAQIGSRAISSSSITIAKKGSGLNVETHNISGITDEMYLNALMTAGVKDAKVYVTAPFEVSGTAALTGLIKAYEVSSDEAISEDVKQVANQELVTTSELGDKIGNENAAALIAKIKEEFAKNGVPDNKADIEKQVDDAASDLNVTLTDSQKNQLVSLFNKMKNADIDWGQVSDQLDKAKDKITKFIESDEGKNFIQKVIDFFVSIWNAIVSIFK”, the “soluble on expression in E. coli” value is reported as “soluble”. With “MGSDKIHHHHHHMSYQIEIGSIRCFVVAAEELHFRRAAIRLNMSQPTLSQQIKRLEELMGVQLFIRSTRRVDLTRAGASFLDHARDILLKIDEAILNAKLEAGGLSPGGEELIIGAISPATSQLLPLILSRFRQRFPRTRLAIKEVDSIELLRGIERGDFHVGLMRPPSNSNLVRFRHLLSERFVAVMPRQSALARKPALRLSDFAGHGVFALKRFELSCFETVYEQLSGAGLLIENDIAVSDTNTALALVTAGAGITFLPEWVSAMAPDGVVTRVVDDMSVEISMAVGWNPDCPVPGILPFVEFATLAAQNLISARK” the “soluble on expression in E. coli” value was “not soluble”. For “MRKQLPVICVAAGIVLLAACTNDGGQQQTTVAPQPAVCNGPTVEISGAEPRYEPLNPTANQDYQRDGKSYKIVQDPSRFSQAGLAAIYDAEPGSNLTASGEMFDPMQLTAAHPTLPIPSYARITNLANGRMIVVRINDRGPYGTDRVISLSRAAADRLNTSNNTKVRIDPIIVAPDGSLSGPGMACTTVAKQTYALPPRPDLSGGMGSASSAPAQPQGDVLPVSNSTLKSDDTTGAPVSSSGFLGAPTTLAPGVLESNEPTPAPQPAPVSAPVAAPATAPATATPVSAPAAAAPVSAPVSAPAAAASGRFVVQVGAVSDQTRAQQYQQRLSQQFSVPGRVIQNGAVWRIQLGPFASKAEASALQQRLQTEAQLQSFIASAQ”, the “soluble on expression in E. coli” value was “not soluble”. With “MGSDKIHHHHHHMIGVRLLVKMSFRSGFRVGRGNETDSTLPTIHSDTIYGAVVYHAFKWSEKAEDFAKKLKVSSLLFVRGDRLLVPKPFLYNTYSLEEDDEESPKELKKASYVFLDKLADYRSIKEASGAVCKENPVEIVRIPRNSLDRITSSSNLYFVEVAFVKEGFTPAFLAEFPDEYEGLFKTAVKSLGDSGIGADSTYGYGLFNAEFESAPDFPEEGEYYLTLSLFVPSAEERSKMNEGYYRVVKRRGVKRDEMKVKKEISYVQEGSVFPFKPEGRGVLKIEDYFVQTSPLCVAFGGDGK” the “soluble on expression in E. coli” value was “not soluble”. With “PGDESEEQSIKAGMMVCHVFVPGFDDLSEQQQIHMAQAIDHPVRKTAHATEYAMLAGLVLGAVTVSIIRWKNVLVSVCIAVLYASTDELHQLFVPGRSGQVKD” the “soluble on expression in E. coli” value was “not soluble”. With “MKGYQSLVFNFFFLKLSAENESTPIQQLLEHFLRQLQRKDPHGFFAFPVTDAIAPGYSMIIKHPMDFGTMKDKIVANEYKSVTEFKADFKLMCDNAMTYNRPDTVYYKLAKKILHAGFKMMSKERLLALKRSMSFMQDMDFSQQAALLGNEDTAVEEPVPEVVPVQVETAKKSKKPSREVISCMFEPEGNACSLTDSTAEEHVLALVEHAADEARDRINRFLPGGKMGYLKRNGDGSLLYSVVNTAEPDADEEETHPVDLSSLSSKLLPGFTTLGFKDERRNKVTFLSSATTALSMQNNSVFGDLKSDEMELLYSAYGDETGVQCALSLQEFVKDAGSYSKKVVDDLLDQITGGDHSRTLFQLKQRRNVPMKPPDEAKVGDTLGDSSSSVLEFMSMKSYPDVSVDISMLSSLGKVKKELDPDDSHLNLDETTKLLQDLHEAQAERGGSRPSSNLSSLSNASERDQHHLGSPSRLSVGEQPDVTHDPYEFLQSPEPAASAKT” the “soluble on expression in E. coli” value was “soluble”. In the case of “ELRAKERKIIRDKEDGLNPQLADRMTLNELYDRFIEQKYDLKPSTKVNYLYMYNHFVRPTFGKRLIGKIKYSDVKKFYYRIILDEEMKANTLDSIHTQLHPAFQMAVRDGLLRQNPTDGLMAEIKKSHIWEDNPRHALTIPQQKAFMDYLKAHREYQGWVPIITVLLGTGMRIGECIGLRWDDLDFEKRIVSVNHTFIYRPDENRKSVKHISTPKTISGRRTIPMIDEVFNAFLDEYEIQKCIGFSSEEIDGYSNFVFVTATGTVYLPNAVNRAIERARVAYNKDEIEIAEKEDREPLIIPHF”, the “soluble on expression in E. coli” value is reported as “not soluble”. In the case of “MSLNKRKGILAIGAHPDDIELGCGASLARLAQKGIYIATVVMTTGNSGVDGIIDRHEESRNALKILGCHQTIHLNFADTRAHLQLNDMISALENIIKNQIPSDVEIIRVYTMHDADRHQDHLAVYQASMVACRAIPQILGYETPSTWLSFMPQVFESVKEEYFSLKLTALKKHKSQSQRDYMRPERLRAVAQFRGQQVNSDLGEGFVIHKMILEGHHHHHH”, the “soluble on expression in E. coli” value is reported as “not soluble”. With “LSDVLVPTAGGLSSDLSAAVAKALEETFGVAVSLLHVVDPGEEESGRQFMYEWAAEHGLSDAELRIETGDIEATIERLGRDYSLVIVGATERGLLSRIVRGSLVFDVIETLDTPVLLAERPSSRSLRERLFGRE” the “soluble on expression in E. coli” value was “not soluble”. In the case of “MSENLTMSELMDSFELKHFHKGEIVKGKVISVKNDEIIVNIGHFADGVVPRNEISNDKNFDINSINVDDDIFVMVLSGDDGEGNVLLSKKRADAIKVCDDLKEAFEEEKSIKVSLKEVVKGGIVGDFNGLRVFMPASQCAGRRIENLEELVGKTLEVRVIEFNKENRKVVVSRRVIDEEIRNNEKKALWSSIKEGEKRKGKVTRLAKFGAFVDIGGVEGLVHLSDMSWSRVHKPEEVVSVGDEVEVFVSEVDMDRERIALSLKDVIKNPWETLEGLKVGNVVLGKVTNFIKVGAFVEVLPGIEGLVHISEITDENIAKPSDILELGQEVKVKILNIDDENKKMSLSIKDAVETSNEYMQYNDEEEGYSLADLFKGLNLLEHHHHHH”, the “soluble on expression in E. coli” value is reported as “soluble”. In the case of “MGSDKIHHHHHHMDKLLFGISGIPNGSGNEKFTYETGIDYLKSIGLDAMELPFVRSVNITNKNREGILNKKHEKDFYLSAHGSYFINLNAEENEKQEASLKRIVSGADALKSVEGKSLIFHPGFYLKDSKEETFNTIKENLKKLPDIGVDYRLETTGKPTQFGSLEENVALASEVKTCKLCIDFCHLHARYNGLFKTIEDFDKVLSYVGEKLGEAALNDMHIHMSGINYGIKGEKNHLPFKESDFPYEKCIKSFVKFNIKGCIICESPLLEKDSLLLKSIYEAS”, the “soluble on expression in E. coli” value is reported as “not soluble”. In the case of “AIRVADLLQHITQMKCAEGYGFKEEYESFFEGQSAPWDSAKKDENRMKNRYGNIIAYDHSRVRLQTIEGDTNSDYINGNYIDGYHRPNHYIATQGPMQETIYDFWRMVWHENTASIIMVTNLVEVGRVKCCKYWPDDTEIYKDIKVTLIETELLAEYVIRTFAVEKRGVHEIREIRQFHFTGWPDHGVPYHATGLLGFVRQVKSKSPPSAGPLVVHCSAGAGRTGCFIVIDIMLDMAEREGVVDIYNCVRELRSRRVNMVQTEEQYVFIHDAILEACL”, the “soluble on expression in E. coli” value is reported as “soluble”. With “MQKRVTDEEIKERLGKIKSRIAVMSGKGGVGKSTVTALLAVHYARQGKKVGILDADFLGPSIPILFGLRNARIAVSAEGLEPVLTQKYGIKVMSMQFLLPKENTPVIWRGPLIAGMIREFLGRVAWGELDHLLIDLPPGTGDAPLTVMQDAKPTGVVVVSTPQELTAVIVEKAINMAEETNTSVLGLVENMSYFVCPNCGHKSYIFGEGKGESLAKKYNIGFFTSIPIEEELIKLADSGRIEEYEKDWFESAPFLEHHHHHH” the “soluble on expression in E. coli” value was “soluble”. With “QRRQMEMQSVNLVHEALSNQRLELFAQRVMNLQSPESLMYFEILVRIRDAQGNYVSPAIFIPASERYNIAHWIDKQVINQALEWFEQRPDVVEKLGRCSINLSGQSMGNQEFIDFLFERLKNSTMPCEKICLEITETAAMGNLDQAIDFFTRAKSLGCMIALDDFGSGLSSFGYLKKLPVDIVKIDGLFVRDIDVNEMDRVMVRSINDLAKQLGKVTVAEFVENEQVMQHLIDLGVDYGQGYGIGHPKPLAELVENLSSL” the “soluble on expression in E. coli” value was “not soluble”. With “MGSDKIHHHHHHQTPAPLAEWQFSAGIPLEKLFEDTIPDWEVRLGGAAMVRPRYDGSSNYIVVGGPSIDIRYRDIAFASIGEGLGVNVLRGKNWRAGIALSYNLGRRAKETSPLLDGMENINPAPEAKLFAEYAVSKEFPLVMRVDARRSLGGSDGWIGDIGAYMPMPGSSEKFFWFAGPTMTLADSRYMNAWYGVSASQARPGRPQFSPSGGVRSYGFGVSAVWFFDKHWFATTDVAVMQLVGDAKRSPLTQSSTNGVFDVSVNYQF” the “soluble on expression in E. coli” value was “not soluble”. In the case of “MTTLGTPVSLGRRTRTGRLELEFGVRHGQTALLRDLQKAPLMVVRPFRLPCGTLMVFIVNPTGGVLGGDHSEIHVEAGAGTRVLILTQSATRVQPSPGGEWATQELHFHVGVGARLEYYPERTLPFAGSRFRQHLRADLGAGAEFGLLETLASGRVQMGERLAWADYRSEVSVYAAQERVYLDRQHFRPGPHSRAPGVLGGNDYFASGVWVAGDSAAGRPAAESPTTAPGWASGLSAGGAVWARGVAATGPALDHAARQLREQVRHDLFGAAPLVLRRLEHHHHHH”, the “soluble on expression in E. coli” value is reported as “not soluble”. For “ASMTGGQQMGRGSASLPACPEESPLLVGPMLIEFNMPVDLELVAKQNPNVKMGGRYAPRDCVSPHKVAIIIPFRNRQEHLKYWLYYLHPVLQRQQLDYGIYVINQAGDTIFNRAKLLNVGFQEALKDYDYTCFVFSDVDLIPMNDHNAYRCFSQPRHISVAMDKFGFSLPYVQYFGGVSALSKQQFLTINGFPNNYWGWGGEDDDIFNRLVFRGMSISRPNAVVGTTRHIRHSRDKKNEPNPQRFDRIAHTKETMLSDGLNSLTYQVLDVQRYPLYTQITVDIGTPS”, the “soluble on expression in E. coli” value was “soluble”. With “MGSDKIHHHHHHMKSYKNYIFDFYGTLVDIRTDENKLEVWNQLTQIYNAFGCSYRPRQLKNAYHRFVEEAERFLAETVSYQYVEIDLETLFIRLLTDAPNENQSTNKPTDLETFGQVVATIFRVLSREKLEAYENTLTSLQTLAARAARLFILSNAQRIFTQAEIEQTGCADLMEKIYISSDFKMKKPEPAFLQLVLEENNLDVKETVMVGNDLTSDIAIAHELGMDSILLNTFPYSQEEIDSYRRLGWNFEVVGDIAELL” the “soluble on expression in E. coli” value was “not soluble”. In the case of “MGSDKIHHHHHHMSQTLEQVIQNAGDLVNFVRNQQVGPNVYPGVPAEYSNWRNEQWAWAHSAVLYNQSYHMVDLAVKGPDAFKMLEHLGINSFKNFQPDRAKQFVPVTPDGYVIGDVILFYLDENHFNLVGRAPTIEWVEYHAASGNWNVTVERDERWAMRTDGKRNSYRFQIQGPNAMKIIEKATGKTAPDLKFFHMTRMTIGGKEVRALRHGMAGQPGFELMGPWEDYGAVHAALVEAGKGFQMALVGGRAYSSNTLESGWIPSPFPAIYTGEALRPYREWLSANSYEAKCSVGGSYVPETIEGYYTTPWDLGYGPFVKFDHDFIGRAALEKMAAEGKHRTKVTLALDNEDVMRVQSSALSKGDRAKFMEYPSAVYSMHPFDQVLADGKMVGLSTWIGYTANEGKFLTLAMMEPGYVEPGTQVSLLWGEPNGGTTKPTVEPHVQTEIKATVAAVPYSEVARDSYAEGWRTKK”, the “soluble on expression in E. coli” value is reported as “not soluble”.
